Measured values reported in patent US20170204167A1 (INSTITUTE FOR RESEARCH IN BIOMEDICINE, published 2017).

B1: FI6 variant 3 (antibody, V domains shown)
VH: QVQLVESGGGVVQPGRSLRLSCAASGFTFSTYAMHWVRQAPGKGLEWVAVISYDANYKYYADSVKGRFTISRDNSKNTLYLQMNSLRAEDTAVYYCAKDSQLRSLLYFEWLSQGYFDYWGQGTLVTVSS
VL: not shown
B2: FI28 variant 1 (antibody, V domains shown)
VH: EVQLVESGGGAVQPGESLKLSCAASGFTFSNYGMHWVRQAPGKGLEWVAVISYDGSNKYYADSVKGRFTISRDNSKDTLYLQMNSLRAEDTALFYCAKERPLRLLRYFDWLSGGANDYWGQGTLVTVSS
VL: DIVMTQSPDSLAVSLGERATINCKSSQSVLYSSNNKNYLAWYQQKPGQPPKLLIDWASTRESGVPDRFSGSGSGTDFTLTISNLQVEDVAVYYCQQYYRSPSFGQGTKLEIK
B3: FI6 variant 2 (antibody, V domains shown)
VH: QVQLVQSGGGVVQPGRSLRLSCVASGFTFSTYAMHWVRQAPGRGLEWVAVISYDGNYKYYADSVKGRFSISRDNSNNTLHLEMNTLRTEDTALYYCAKDSQLRSLLYFEWLSQGYFDPWGQGTLVTVTS
VL: DIQMTQSPDSLAVSLGARATINCKSSQSVTFNYKNYLAWYQQKPGQPPKVLIYWASARESGVPDRFSGSGSGTDFTLTISSLQAEDVAVYYCQQHYRTPPTFGQGTKVEIK

Columns and labels:
[1] = biological target: T1, HA of H1N1 A/Solomon Islands/3/06 (influenza A virus H1N1 A/Solomon …); test: ELISA on recombinant or purified HA
[2] = biological target: T2, HA of H1N1 A/New Caledonia/20/99 (influenza A virus H1N1 A/New …); test: ELISA on recombinant or purified HA
HA of H3N2 A/WI/67/05 = HA of H3N2 A/WI/67/05 (influenza A virus H3N2 A/WI/67/05); test: cell-based or functional assay
[3] = biological target: T1, HA of H1N1 A/Solomon Islands/3/06; test: cell-based or functional assay
HA of H3N2 A/CA/7/04 = HA of H3N2 A/CA/7/04 (influenza A virus H3N2 A/CA/7/04); test: cell-based or functional assay
[4] = biological target: T2, HA of H1N1 A/New Caledonia/20/99; test: cell-based or functional assay

Row | Binder | EC50 [1] | EC50 [2] | Neutralization of infectious viruses (IC50, µg/ml) (HA of H3N2 A/WI/67/05) | Neutralization of infectious viruses (IC50, µg/ml) [3] | Neutralization of infectious viruses (IC50, µg/ml) (HA of H3N2 A/CA/7/04) | Neutralization of infectious viruses (IC50, µg/ml) [4]
1 | B1 | 0.019 µg/mL | 0.017 µg/mL |  |  |  | 
2 | B2 |  |  | > 100 µg/mL | > 100 µg/mL | > 100 µg/mL | > 100 µg/mL
3 | B3 | 0.018 µg/mL | 0.015 µg/mL | 12.5 µg/mL | 8.8 µg/mL | 7.9 µg/mL | 6.3 µg/mL
